Test results published in patent US20230340151A1 (Pfizer, published 2023).

How the values were obtained:
Experiment in all cases: flow cytometry on cells displaying the construct
[1] = molecular target: T1, CID1881 (human-chicken GUCY2c chimera) (human/chicken)
T1 chain: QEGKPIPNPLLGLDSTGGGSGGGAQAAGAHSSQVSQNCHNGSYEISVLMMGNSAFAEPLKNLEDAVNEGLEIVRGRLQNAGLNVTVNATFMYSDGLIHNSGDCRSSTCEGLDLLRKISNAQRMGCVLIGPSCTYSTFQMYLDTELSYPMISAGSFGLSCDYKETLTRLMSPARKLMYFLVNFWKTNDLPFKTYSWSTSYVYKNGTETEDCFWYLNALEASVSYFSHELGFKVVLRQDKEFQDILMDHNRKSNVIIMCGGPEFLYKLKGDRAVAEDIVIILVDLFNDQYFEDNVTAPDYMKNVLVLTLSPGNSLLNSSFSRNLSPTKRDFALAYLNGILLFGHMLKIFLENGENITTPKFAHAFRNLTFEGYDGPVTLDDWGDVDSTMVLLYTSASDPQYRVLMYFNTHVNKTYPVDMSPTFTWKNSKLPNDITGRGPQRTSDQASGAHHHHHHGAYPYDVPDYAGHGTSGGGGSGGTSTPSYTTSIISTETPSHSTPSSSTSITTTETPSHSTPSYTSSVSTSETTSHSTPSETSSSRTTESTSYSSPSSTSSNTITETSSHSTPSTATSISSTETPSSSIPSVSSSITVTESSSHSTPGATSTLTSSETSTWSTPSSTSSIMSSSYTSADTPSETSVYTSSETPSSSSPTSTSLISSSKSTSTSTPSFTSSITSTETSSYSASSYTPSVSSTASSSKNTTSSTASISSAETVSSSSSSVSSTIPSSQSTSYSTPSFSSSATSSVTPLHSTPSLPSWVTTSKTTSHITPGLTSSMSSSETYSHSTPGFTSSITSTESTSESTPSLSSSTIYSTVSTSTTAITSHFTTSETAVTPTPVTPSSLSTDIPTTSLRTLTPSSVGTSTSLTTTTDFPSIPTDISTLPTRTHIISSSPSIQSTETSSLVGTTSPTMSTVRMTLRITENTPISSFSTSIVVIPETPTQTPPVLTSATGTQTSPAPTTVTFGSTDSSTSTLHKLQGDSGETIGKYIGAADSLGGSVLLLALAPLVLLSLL

[2] = molecular target: T2, CID1880 (human-chicken GUCY2c chimera) (human/chicken)
T2 chain: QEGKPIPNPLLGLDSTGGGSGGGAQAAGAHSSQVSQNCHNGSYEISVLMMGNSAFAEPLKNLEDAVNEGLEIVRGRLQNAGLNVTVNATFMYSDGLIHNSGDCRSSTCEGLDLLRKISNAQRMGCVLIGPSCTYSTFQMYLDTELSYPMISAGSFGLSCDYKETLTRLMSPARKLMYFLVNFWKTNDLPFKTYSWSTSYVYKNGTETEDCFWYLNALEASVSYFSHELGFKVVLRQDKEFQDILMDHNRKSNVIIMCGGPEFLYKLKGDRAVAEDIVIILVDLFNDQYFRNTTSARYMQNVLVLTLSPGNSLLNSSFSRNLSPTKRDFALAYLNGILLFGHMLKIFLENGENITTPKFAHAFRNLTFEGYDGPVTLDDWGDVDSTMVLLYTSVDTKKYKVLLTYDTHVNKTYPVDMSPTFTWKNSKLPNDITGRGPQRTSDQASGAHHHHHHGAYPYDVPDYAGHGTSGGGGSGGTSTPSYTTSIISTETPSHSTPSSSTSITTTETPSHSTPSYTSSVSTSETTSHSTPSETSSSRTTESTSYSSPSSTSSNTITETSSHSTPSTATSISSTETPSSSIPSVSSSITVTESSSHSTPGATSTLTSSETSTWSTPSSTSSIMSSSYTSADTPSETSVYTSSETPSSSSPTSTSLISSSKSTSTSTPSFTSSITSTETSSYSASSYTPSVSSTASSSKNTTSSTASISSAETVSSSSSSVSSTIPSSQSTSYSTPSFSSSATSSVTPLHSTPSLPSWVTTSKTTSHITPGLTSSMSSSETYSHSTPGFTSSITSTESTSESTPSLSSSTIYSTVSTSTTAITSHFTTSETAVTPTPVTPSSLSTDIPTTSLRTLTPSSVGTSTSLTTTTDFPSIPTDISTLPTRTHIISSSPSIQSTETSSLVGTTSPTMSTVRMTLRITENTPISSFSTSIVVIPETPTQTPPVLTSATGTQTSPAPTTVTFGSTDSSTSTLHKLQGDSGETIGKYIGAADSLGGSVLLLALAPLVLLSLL

[3] = molecular target: T3, CID1940 (reverse chimera, chicken GUCY2c with human residues) (chicken/human)
T3 chain: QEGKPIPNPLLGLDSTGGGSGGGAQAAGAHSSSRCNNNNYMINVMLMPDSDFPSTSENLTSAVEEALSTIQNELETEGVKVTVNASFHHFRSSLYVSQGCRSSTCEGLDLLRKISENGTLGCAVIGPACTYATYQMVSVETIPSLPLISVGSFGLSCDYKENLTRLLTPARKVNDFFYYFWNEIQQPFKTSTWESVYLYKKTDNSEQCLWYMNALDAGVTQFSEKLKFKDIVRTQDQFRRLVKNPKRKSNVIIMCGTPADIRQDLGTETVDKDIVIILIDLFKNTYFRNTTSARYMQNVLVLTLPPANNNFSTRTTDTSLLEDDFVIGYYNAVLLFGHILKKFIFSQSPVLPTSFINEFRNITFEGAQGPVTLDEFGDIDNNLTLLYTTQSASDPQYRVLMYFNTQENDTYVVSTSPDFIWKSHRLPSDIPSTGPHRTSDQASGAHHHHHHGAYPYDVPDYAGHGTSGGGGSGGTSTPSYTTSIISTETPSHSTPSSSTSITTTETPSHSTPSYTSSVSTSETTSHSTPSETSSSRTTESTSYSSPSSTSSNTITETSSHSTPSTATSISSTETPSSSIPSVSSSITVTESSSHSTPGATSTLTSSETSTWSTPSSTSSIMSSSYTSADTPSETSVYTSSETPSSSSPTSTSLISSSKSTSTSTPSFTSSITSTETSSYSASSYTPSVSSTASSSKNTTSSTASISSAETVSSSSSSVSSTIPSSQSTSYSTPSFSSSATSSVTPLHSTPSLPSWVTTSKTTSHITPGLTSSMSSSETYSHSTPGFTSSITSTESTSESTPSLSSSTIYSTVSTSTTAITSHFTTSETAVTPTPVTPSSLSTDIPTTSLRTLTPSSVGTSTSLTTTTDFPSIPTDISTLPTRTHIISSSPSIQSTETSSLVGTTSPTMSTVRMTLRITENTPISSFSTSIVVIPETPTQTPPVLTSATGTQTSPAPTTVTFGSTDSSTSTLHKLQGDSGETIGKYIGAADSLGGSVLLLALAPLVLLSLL

Measured: binding result

B1: GUCY2C-1608 (bispecific antibody)
chain 1: DIQLTQSPSSLSASVGDRVTITCRASESVDYYGSSLLQWYQQKPGKAPKLLIYAASKLASGVPSRFSGSGSGTDFTLTISSLQPEDFATYYCQQTRKAYTFGQGTKLEIKGGGSGGGGEVQLVESGGGLVQPGGSLRLSCAASGFTFSDYYMTWVRQAPGKGLEWVAFIRNQARGYTSDHNPSVKGRFTISRDNAKNSLYLQMNSLRAEDTAVYYCARDRPSYYVLDYWGQGTTVTVSSGCPPCPAPEAAGAPSVFLFPPKPKDTLMISRTPEVTCVVVDVSHEDPEVKFNWYVDGVEVHNAKTKPREEQYNSTYRVVSVLTVLHQDWLNGKEYKCKVSNKALPAPIEKTISKAKGQPREPQVCTLPPSREEMTKNQVSLWCLVKGFYPSDIAVEWESNGQPENNYKTTPPVLDSDGSFFLYSKLTVDKSRWQQGNVFSCSVMHEALHNHYTQKSLSLSPG
chain 2: DIQMTQSPSSLSASVGDRVTITCTSSQSLFNVRSQKNYLAWYQQKPGKAPKLLIYWASTRESGVPSRFSGSGSGTDFTLTISSLQPEDFATYYCKQSYDLFTFGGGTKVEIKGGGGSGGGGEVQLVESGGGLVQPGGSLRLSCAASGFTFSSYWMHWVRQAPGKGLEWIGEIKPSNELTNVHEKFKDRFTISVDKAKNSAYLQMNSLRAEDTAVYYCTRTITTTEGYWFFDVWGQGTLVTVSSGCPPCPAPEAAGAPSVFLFPPKPKDTLMISRTPEVTCVVVDVSHEDPEVKFNWYVDGVEVHNAKTKPREEQYNSTYRVVSVLTVLHQDWLNGKEYKCKVSNKALPAPIEKTISKAKGQPREPQVYTLPPCREEMTKNQVSLSCAVKGFYPSDIAVEWESNGQPENNYKTTPPVLDSDGSFFLVSKLTVDKSRWQQGNVFSCSVMHEALHNHYTQKSLSLSPG
notes: also called GUCY2c CD3 bispecific
binds: all assays above
